Test results: article PMC5384083

B1: T7 tagged FoxM1 wild type (WT) [not stated] / Retinoblastoma protein (Rb), endogenous [human (endogenous in MCF7 and MDA-MB-453)] (parent)
chain 1: MKTSPRRPLILKRRRLPLPVQNAPSETSEEEPKRSPAQQESNQAEASKEVAESNSCKFPAGIKIINHPTMPNTQVVAIPNNANIHSIITALTAKGKESGSSGPNKFILISCGGAPTQPPGLRPQTQTSYDAKRTEVTLETLGPKPAARDVNLPRPPGALCEQKRETCADGEAAGCTINNSLSNIQWLRKMSSDGLGSRSIKQEMEEKENCHLEQRQVKVEEPSRPSASWQNSVSERPPYSYMAMIQFAINSTERKRMTLKDIYTWIEDHFPYFKHIAKPGWKNSIRHNLSLHDMFVRETSANGKVSFWTIHPSANRYLTLDQVFKQQKRPNPELRRNMTIKTELPLGARRKMKPLLPRVSSYLVPIQFPVNQSLVLQPSVKVPLPLAASLMSSELARHSKRVRIAPKVLLAEEGIAPLSSAGPGKEEKLLFGEGFSPLLPVQTIKEEEIQPGEEMPHLARPIKVESPPLEEWPSPAPSFKEESSHSWEDSSQSPTPRPKKSYSGLRSPTRCVSEMLVIQHRERRERSRSRRKQHLLPPCVDEPELLFSEGPSTSRWAAELPFPADSSDPASQLSYSQEVGGPFKTPIKETLPISSTPSKSVLPRTPESWRLTPPAKVGGLDFSPVQTSQGASDPLPDPLGLMDLSTTPLQSAPPLESPQRLLSSEPLDLISVPFGNSSPSDIDVPKPGSPEPQVSGLAANRSLTEGLVLDTMNDSLSKILLDISFPGLDEDPLGPDNINWSQFIPELQ
chain 2: MPPKTPRKTAATAAAAAAEPPAPPPPPPPEEDPEQDSGPEDLPLVRLEFEETEEPDFTALCQKLKIPDHVRERAWLTWEKVSSVDGVLGGYIQKKKELWGICIFIAAVDLDEMSFTFTELQKNIEISVHKFFNLLKEIDTSTKVDNAMSRLLKKYDVLFALFSKLERTCELIYLTQPSSSISTEINSALVLKVSWITFLLAKGEVLQMEDDLVISFQLMLCVLDYFIKLSPPMLLKEPYKTAVIPINGSPRTPRRGQNRSARIAKQLENDTRIIEVLCKEHECNIDEVKNVYFKNFIPFMNSLGLVTSNGLPEVENLSKRYEEIYLKNKDLDARLFLDHDKTLQTDSIDSFETQRTPRKSNLDEEVNVIPPHTPVRTVMNTIQQLMMILNSASDQPSENLISYFNNCTVNPKESILKRVKDIGYIFKEKFAKAVGQGCVEIGSQRYKLGVRLYYRVMESMLKSEEERLSIQNFSKLLNDNIFHMSLLACALEVVMATYSRSTSQNLDSGTDLSFPWILNVLNLKAFDFYKVIESFIKAEGNLTREMIKHLERCEHRIMESLAWLSDSPLFDLIKQSKDREGPTDHLESACPLNLPLQNNHTAADMYLSPVRSPKKKGSTTRVNSTANAETQATSAFQTQKPLKSTSLSLFYKKVYRLAYLRLNTLCERLLSEHPELEHIIWTLFQHTLQNEYELMRDRHLDQIMMCSMYGICKVKNIDLKFKIIVTAYKDLPHAVQETFKRVLIKEEEYDSIIVFYNSVFMQRLKTNILQYASTRPPTLSPIPHIPRSPYKFPSSPLRIPGGNIYISPLKSPYKISEGLPTPTKMTPRSRILVSIGESFGTSEKFQKINQMVCNSDRVLKRSAEGSNPPKPLKKLRFDIEGSDEADGSKHLPGESKFQQKLAEMTSTRTRMQKQKMNDSMDTSNKEEK
B2: T7 tagged FoxM1 wild type (WT) [not stated] / DNMT3b, endogenous [human (endogenous in MCF7 and MDA-MB-453)] (parent)
chain 1: B1 chain 1
chain 2: not shown

Variants of: B1
Assay: co-immunoprecipitation (IP T7, western blot Rb), band intensity given
Conditions: with Retinoblastoma protein (Rb), MDA-MB-453 cells, cell lysates (800 ug)

Q: How did the response turn out when chain 1 S715D S724D was run?
A: 0.09

Q: chain 1 T596A was tested. Which response did it give?
A: 22.8

Variants of: B2
Assay: co-immunoprecipitation (IP T7, western blot DNMT3b), band intensity given
Conditions: with DNMT3b, MDA-MB-453 cells

Q: For chain 1 S715D S724D, which response is on record?
A: 10

Q: chain 1 T596A was tested. Which response did it give?
A: 132
